Measured values reported in the supplement of paper PMC9732359.
± gives the uncertainty stated by the source.

test: protein stability index of a GFP-peptide fusion (yeast GPS) (PSI 1-4); higher = more stable; sorted into four equal gates, so the index is relative within each strain; conditions: pdr5∆
How it was run: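 Peptides tiling yeast proteins in 17-residue segments were fused downstream of GFP, with Cherry expressed from the same plasmid. As a pooled library in yeast, mid-log cultures grown in leucine-free medium were sorted into four equal gates by GFP/Cherry fluorescence ratio. Gate plasmids were PCR-amplified and Illumina-sequenced, and barcodes linked reads to strains. Each peptide received a protein stability index equal to the sum of each gate's read frequency times its gate number.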

In order of rising protein stability index:
1. VREFQRRLAFLGIKVAE [BRR2]  1.17 ± 0.14
2. YIRKLISSGLLYLQDSN [SRB8]  1.21 ± 0.093
3. VNTEKKTIEVTAEINCF [RPN3]  1.35 ± 0.11
4. WMLSICVEWRLPEIAKE [YJR042W/NUP85]  1.37 ± 0.05
5. VQLLSKSHNAHVRCGTA [RPN2]  1.5 ± 0.042
6. VNVLLQSYFSQLKFEGF [BRR2]  1.51 ± 0.046
7. VSMKANKYQIKKAVKEL [RPL25]  1.52 ± 0.07
8. WTEKKGKNVINRERFIS [SMD2]  1.54 ± 0.066
9. VVVIDGKGHLVGRLASV [RPL16A]  1.64 ± 0.054
10. VVGTETRVNAQLESYEY [RRI1]  1.65 ± 0.11
11. YKAKIKELENNLERLRS [YIL149C/MLP2]  1.65 ± 0.051
12. VQQFAQLPVGFKNMGNT [UBP6]  1.74 ± 0.076
13. VVLRLYLKDNITLLTRQ [GRR1]  1.75 ± 0.084
14. VTLFQMAILLLYNDADV [CDC53]  1.79 ± 0.051
15. WSKTIKARTNLHQHVVL [RPC34]  1.8 ± 0.1
16. VSNNVLRRLEILVPDLY [ECM29]  1.84 ± 0.083
17. YIEDFLLVIGGNQRKIL [YJR042W/NUP85]  1.86 ± 0.05
18. WKEVMFDPSKDVLINEL [CDC53]  1.87 ± 0.052
19. VVLFNRQPSLHRLSILS [RPO31]  1.88 ± 0.053
20. VTRTQQWSMVAQRLQIS [SWI1]  1.89 ± 0.049
21. YEYGAVSVLLISKDCSA [BRR2]  1.97 ± 0.043
22. YARFKNDFFPGEVVYLR [ITC1]  1.99 ± 0.069
23. YAVKAVENGTTSIGIKC [PRE10]  2.02 ± 0.076
24. YITAKNNVVINFKDMSH [PRP8]  2.02 ± 0.047
25. VRSLPKEEQPKQIIVTR [PRP8]  2.09 ± 0.25
26. YIQRRLVKALEDIMVHY [RPO21]  2.11 ± 0.051
27. VRSAEYYAKKRAFTKKV [RPL16B]  2.18 ± 0.066
28. VRNYKPLINRLKHYNGY [SWI1]  2.2 ± 0.045
29. VVRIKGINKIPPKPRKV [RPL7A]  2.21 ± 0.055
30. YDPSIGIFGMDFYVVMN [RPL11A]  2.24 ± 0.052
31. WASKYGQEYPRIIGLSA [BRR2]  2.32 ± 0.089
32. VQVGPMKVFVTKHLMPQ [RPB7]  2.37 ± 0.041
33. YIEEKHPTIYESLPQYV [POP4]  2.39 ± 0.048
34. VQYKLLSISVPSDVNID [SNU114]  2.5 ± 0.069
35. VSNIEGILDEIMFNHAR [RGR1]  2.53 ± 0.053
36. WNRADNHFKDTYGFSIL [FAS1]  2.57 ± 0.069
37. VVEGVTFVVEQLIKQSI [SNU114]  2.6 ± 0.095
38. VNADDDDFMHSETREKE [RPB4]  2.61 ± 0.06
39. YENSISKDLRSVWKPIA [IRR1]  2.63 ± 0.11
40. VNITKFSKFERSKSSHK [SKI6]  2.65 ± 0.059
41. WIRLRTNNTIRYNAKRR [RPL39]  2.65 ± 0.083
42. WQYYYYTLTEEGVEYLR [RPS10A]  2.66 ± 0.072
43. YATKDGVAHLLNRFNFQ [QCR2]  2.67 ± 0.053
44. WYEASTWIQQFKSTMLQ [ARP7]  2.68 ± 0.069
45. VVDANGCVNSLISGPRN [YMR129W/POM152]  2.69 ± 0.12
46. WESLAKKQNLSSHQRVF [SWP82]  2.71 ± 0.071
47. VSKPSLLHETNDSFKGL [PRP8]  2.74 ± 0.13
48. WRAIIKAIFPNTVDGDL [FAS1]  2.75 ± 0.15
49. VRMLASPMLYKVPDISS [BRR2]  2.77 ± 0.078
50. VTFSPTGRLFQVEYALE [PRE5]  2.77 ± 0.12
51. VNGFLNLGYCNDKLIVD [RPN1]  2.78 ± 0.067
52. VPQGKIVALTNAKDKER [SMC3]  2.84 ± 0.14
53. YDPIKRIDAFNALEHKY [SSN3]  2.85 ± 0.041
54. YASFNDTFVHVTDLSGK [RPS14B]  2.88 ± 0.08
55. VVNITHHELVPKHIRLS [RPB5]  2.89 ± 0.062
56. VSFNGFKLPKKFPPPTP [BRR2]  2.9 ± 0.067
57. VTSMEAAREKKIRELEA [YIL149C/MLP2]  2.9 ± 0.1
58. VTSEKYPFDKLESWWLV [BRR2]  2.91 ± 0.19
59. YFFQLQIRSADEPMTTF [RPC11]  2.91 ± 0.068
60. VRIYSGLLKRGDTVRIL [SNU114]  2.92 ± 0.17
61. VVSILEAGDSDILTTLA [RPL30]  2.92 ± 0.074
62. VVDQLWSEISNELPDIE [RPN2]  2.94 ± 0.1
63. VRRLEAQRNALNDKVRF [RPT6]  2.96 ± 0.089
64. WTMRIEGRLLDNVQAND [SNF12]  2.96 ± 0.096
65. WSEITESMSYLPDPILK [MCD1]  2.97 ± 0.18
66. VVVVLEEPSASIMVELK [SIR3]  2.99 ± 0.16
67. VSGNNASDEPSRKKNRR [SSN3]  3.01 ± 0.11
68. VPQSEETRAELSQLCAV [RPO21]  3.02 ± 0.065
69. VTKETVHPRKSYKMNSS [PRP8]  3.02 ± 0.086
70. YGLGLIYAGFGRDTTDY [RPN2]  3.03 ± 0.1
71. VRWIETQDVFLKDFNTE [FAS2]  3.065 ± 0.026
72. WSKESNYDCKVISIVGG [PRP28]  3.06 ± 0.11
73. YDSRSGTHNMYKEIRDV [RPL20A]  3.06 ± 0.064
74. VWNYTFMGTAFNQEGDY [PRP8]  3.09 ± 0.19
75. WIKNEQERQRQIQKNGP [PRP8]  3.09 ± 0.11
76. VSKKWAAAGVCEKWAAS [RPL14B]  3.1 ± 0.14
77. VNDRSDISDSEGGLFEC [PCI8]  3.11 ± 0.12
78. YILEAEAAAKEKDELDN [QCR7]  3.11 ± 0.11
79. VNADTVGKTVKQLIMES [NSL1]  3.13 ± 0.055
80. WQIEEAGNSQITSGGFL [SRB5]  3.13 ± 0.17
81. YGDGNGKGDNDNGLGPL [SWI3]  3.13 ± 0.3
82. VRNLQGIQEVVHNTNSF [NUT1]  3.15 ± 0.068
83. VNAMRVLYYRDARSSRN [PRE4]  3.16 ± 0.23
84. VNDTVKIDLASGKITDF [RPS4A]  3.17 ± 0.1
85. VNTTRRFQYSDDEPAEK [YMR129W/POM152]  3.17 ± 0.17
86. YGTATADDADIEMKDVS [MED1]  3.17 ± 0.081
87. VVEISNGNTSSKTVVTL [FAS1]  3.18 ± 0.05
88. WSTTGDNGELDLSGFNI [MED2]  3.19 ± 0.12
89. WRILKEDYAIVTKGGTV [PRP28]  3.2 ± 0.29
90. VVESVGAEVDEARINEL [RPP2B]  3.21 ± 0.091
91. YGRKSFRNNKNDNYSSD [REC8]  3.22 ± 0.068
92. VWFSHPRRYGKGSRQCR [RPS29A]  3.24 ± 0.1
93. VVLSFSGLNADSRILIE [PRE6]  3.26 ± 0.2
94. VRNTAPNIRELGVKNLG [YCG1]  3.29 ± 0.22
95. YDNEKTAELIKELKEKE [PUP2]  3.34 ± 0.087
96. YGMSITETFEKPQRTNT [RPB2]  3.35 ± 0.17
97. VTNDLDTSAEKDQIQAG [SIR4]  3.36 ± 0.12
98. YEKELMGDELTRSHFNA [RPN6]  3.39 ± 0.15
99. VMNTKLLQEGGSLSGNS [ESC2]  3.44 ± 0.14
100. VPAVVDDPLENMFGDYS [SNF6]  3.48 ± 0.12
101. VSEDLLDERGHEKIEDE [RPN4]  3.53 ± 0.15

same assay, conditions: san1∆

For VLVYDDKLEKVTHDCYR [RPC34], the protein stability index was 2.94 ± 0.069.
